Experimental data from patent US20200031888.

Molecular target: C3b (Comptech), P01024
Sequence (P01024 whole entry, looked up): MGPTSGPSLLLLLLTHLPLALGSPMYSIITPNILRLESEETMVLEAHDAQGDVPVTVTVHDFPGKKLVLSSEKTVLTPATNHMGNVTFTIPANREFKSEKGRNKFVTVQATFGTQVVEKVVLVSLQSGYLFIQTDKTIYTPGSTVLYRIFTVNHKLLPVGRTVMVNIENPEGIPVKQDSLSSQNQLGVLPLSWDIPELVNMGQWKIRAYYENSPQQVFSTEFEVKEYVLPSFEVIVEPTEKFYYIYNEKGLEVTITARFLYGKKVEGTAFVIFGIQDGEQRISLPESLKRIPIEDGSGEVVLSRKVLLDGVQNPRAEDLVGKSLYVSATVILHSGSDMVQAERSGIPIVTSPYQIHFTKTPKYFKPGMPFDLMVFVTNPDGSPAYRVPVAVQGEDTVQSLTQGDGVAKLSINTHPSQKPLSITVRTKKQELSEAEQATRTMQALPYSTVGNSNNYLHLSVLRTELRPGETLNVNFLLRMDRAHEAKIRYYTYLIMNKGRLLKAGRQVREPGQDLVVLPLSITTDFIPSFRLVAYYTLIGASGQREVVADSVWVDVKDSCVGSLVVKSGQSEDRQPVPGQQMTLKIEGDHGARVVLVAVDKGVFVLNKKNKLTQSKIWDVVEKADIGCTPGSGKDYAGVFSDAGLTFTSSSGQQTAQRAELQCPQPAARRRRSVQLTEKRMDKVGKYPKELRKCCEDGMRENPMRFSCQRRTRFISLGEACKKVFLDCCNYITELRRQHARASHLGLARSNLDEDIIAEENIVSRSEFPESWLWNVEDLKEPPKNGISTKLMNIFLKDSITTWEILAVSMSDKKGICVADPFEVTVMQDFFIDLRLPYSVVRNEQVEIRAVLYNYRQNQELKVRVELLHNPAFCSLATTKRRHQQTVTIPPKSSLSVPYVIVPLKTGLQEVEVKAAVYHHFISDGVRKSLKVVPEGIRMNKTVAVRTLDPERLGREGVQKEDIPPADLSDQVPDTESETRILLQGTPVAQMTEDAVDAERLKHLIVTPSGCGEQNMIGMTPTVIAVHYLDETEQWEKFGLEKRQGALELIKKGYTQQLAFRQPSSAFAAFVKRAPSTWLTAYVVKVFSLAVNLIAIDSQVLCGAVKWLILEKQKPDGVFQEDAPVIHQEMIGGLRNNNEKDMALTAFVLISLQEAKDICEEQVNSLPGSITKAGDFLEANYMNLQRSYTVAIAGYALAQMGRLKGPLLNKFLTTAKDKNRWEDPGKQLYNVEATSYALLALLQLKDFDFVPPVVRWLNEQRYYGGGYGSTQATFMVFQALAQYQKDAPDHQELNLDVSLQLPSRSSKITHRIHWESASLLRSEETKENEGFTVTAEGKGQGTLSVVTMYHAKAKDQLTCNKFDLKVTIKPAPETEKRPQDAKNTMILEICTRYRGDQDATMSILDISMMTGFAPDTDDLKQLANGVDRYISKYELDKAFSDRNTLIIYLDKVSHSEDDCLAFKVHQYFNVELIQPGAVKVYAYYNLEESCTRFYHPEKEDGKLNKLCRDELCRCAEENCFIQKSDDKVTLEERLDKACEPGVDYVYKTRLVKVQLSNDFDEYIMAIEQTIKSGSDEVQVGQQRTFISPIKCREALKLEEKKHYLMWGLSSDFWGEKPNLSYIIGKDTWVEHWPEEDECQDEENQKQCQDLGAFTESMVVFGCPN

B1: recombinant mature Complement Factor I made by in vitro furin cleavage of pro-rCFI (protein)
chain 1: KVTYTSQEDLVEKKCLAKKYTHLSCDKVFCQPWQRCIEGTCVCKLPYQCPKNGTAVCATNRRSFPTYCQQKSLECLHPGTKFLNNGTCTAEGKFSVSLKHGNTDSEGIVEVKLVDQDKTMFICKSSWSMREANVACLDLGFQQGADTQRRFKLSDLSINSTECLHVHCRGLETSLAECTFTKRRTMGYQDFADVVCYTQKADSPMDDFFQCVNGKYISQMKACDGINDCGDQSDELCCKACQGKGFHCKSGVCIPSQYQCNGEVDCITGEDEVGCAGFASVAQEETEILTADMDAERRRIKSLLPKLSCGVKNRMHI
chain 2: IVGGKRAQLGDLPWQVAIKDASGITCGGIYIGGCWILTAAHCLRASKTHRYQIWTTVVDWIHPDLKRIVIEYVDRIIFHENYNAGTYQNDIALIEMKKDGNKKDCELPRSIPACVPWSPYLFQPNDTCIVSGWGREKDNERVFSLQWGEVKLISNCSKFYGNRFYEKEMECAGTYDGSIDACKGDSGGPLVCMDANNVTYVWGVVSWGENCGKPEFPGVYTKVANYFDWISYHVGRPFISQYNV
C3b inactivation (cofactor) assay with CFH, western blot of alpha1 and alpha2 bands: lane 8 which corresponds to a sample containing the in vitro cleaved mature rCFI, is the only sample containing bands that correspond to the α1 and α2 chains | C3b inactivation assay, second western blot: The activity of the in vitro cleaved rCFI can be seen to be comparable to sCFI

B2: recombinant precursor Complement Factor I (pro-rCFI), His-tagged, expressed in CHO cells (protein)
chain: KVTYTSQEDLVEKKCLAKKYTHLSCDKVFCQPWQRCIEGTCVCKLPYQCPKNGTAVCATNRRSFPTYCQQKSLECLHPGTKFLNNGTCTAEGKFSVSLKHGNTDSEGIVEVKLVDQDKTMFICKSSWSMREANVACLDLGFQQGADTQRRFKLSDLSINSTECLHVHCRGLETSLAECTFTKRRTMGYQDFADVVCYTQKADSPMDDFFQCVNGKYISQMKACDGINDCGDQSDELCCKACQGKGFHCKSGVCIPSQYQCNGEVDCITGEDEVGCAGFASVTQEETEILTADMDAERRRIKSLLPKLSCGVKNRMHIRRKRIVGGKRAQLGDLPWQVAIKDASGITCGGIYIGGCWILTAAHCLRASKTHRYQIWTTVVDWIHPDLKRIVIEYVDRIIFHENYNAGTYQNDIALIEMKKDGNKKDCELPRSIPACVPWSPYLFQPNDTCIVSGWGREKDNERVFSLQWGEVKLISNCSKFYGNRFYEKEMECAGTYDGSIDACKGDSGGPLVCMDANNVTYVWGVVSWGENCGKPEFPGVYTKVANYFDWISYHVGRPFISQYNV
C3b cofactor assay, western blot: only cleaved FI has activity, and Pro-FI is inactive

B3: serum CFI (Comptech) (protein)
chain: KVTYTSQEDLVEKKCLAKKYTHLSCDKVFCQPWQRCIEGTCVCKLPYQCPKNGTAVCATNRRSFPTYCQQKSLECLHPGTKFLNNGTCTAEGKFSVSLKHGNTDSEGIVEVKLVDQDKTMFICKSSWSMREANVACLDLGFQQGADTQRRFKLSDLSINSTECLHVHCRGLETSLAECTFTKRRTMGYQDFADVVCYTQKADSPMDDFFQCVNGKYISQMKACDGINDCGDQSDELCCKACQGKGFHCKSGVCIPSQYQCNGEVDCITGEDEVGCAGFASVTQEETEILTADMDAERRRIKSLLPKLSCGVKNRMHIRRKRIVGGKRAQLGDLPWQVAIKDASGITCGGIYIGGCWILTAAHCLRASKTHRYQIWTTVVDWIHPDLKRIVIEYVDRIIFHENYNAGTYQNDIALIEMKKDGNKKDCELPRSIPACVPWSPYLFQPNDTCIVSGWGREKDNERVFSLQWGEVKLISNCSKFYGNRFYEKEMECAGTYDGSIDACKGDSGGPLVCMDANNVTYVWGVVSWGENCGKPEFPGVYTKVANYFDWISYHVGRPFISQYNV
C3b inactivation assay, positive control: iC3b cleaved by incubation with mature sCFI
